Laboratory results taken from US20240343811A1 (SHANDONG SIMCERE BIOPHARMACUTICAL, published 2024).
Substitutions are numbered along the chain they refer to.

T1: Human CD16b (NA1)-his (human)
T1 construct: entry holds ECD, linker, His tag and AVI tag
T1 chain: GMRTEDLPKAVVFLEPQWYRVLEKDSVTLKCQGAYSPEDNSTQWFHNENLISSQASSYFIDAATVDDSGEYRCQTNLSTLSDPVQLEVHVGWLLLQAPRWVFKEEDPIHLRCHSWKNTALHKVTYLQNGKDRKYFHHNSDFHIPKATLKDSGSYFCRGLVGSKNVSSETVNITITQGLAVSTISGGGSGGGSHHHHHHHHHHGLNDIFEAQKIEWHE

B1: VHH06 VHH-Fc antibody (Fc fusion)
chain: EVQLVESGGGLVQAGGSLRLSCVASGSTWTTYAVRWYRQAPGKQREWVAFISVDGSTNYPDSVKGRFIVSRDNAKNTVYLQMNSLKPEDTADYICRVGGQYWGQGTQVTVSSEPKSSDKTHTCPPCPAPEFEGGPSVFLFPPKPKDTLMISRTPEVTCVVVAVSHEDPEVKFNWYVDGVEVHNAKTKPREEQYNSTYRVVSVLTVLHQDWLNGKEYKCKVSNKALPAPIEKTISKAKGQPREPQVYTLPPSREEMTKNQVSLTCLVKGFYPSDIAVEWESNGQPENNYKTTPPVLDSDGSFFLYSKLTVDKSRWQQGNVFSCSVMHEALHNHYTQKSLSLSPGK
B2: VHH11 VHH-Fc antibody (Fc fusion)
chain: EVQVVESGGGLAQAGGSLRLSCAVSGITFSSYAMGWYRQDPGKQRELVAAINRFGLTNYADSVKGRFTISRDNAKNTVYLQMTSLKPEDTAVYYCNTGGVYSHPNYYTGTYWGQGTQVTVSSEPKSSDKTHTCPPCPAPEFEGGPSVFLFPPKPKDTLMISRTPEVTCVVVAVSHEDPEVKFNWYVDGVEVHNAKTKPREEQYNSTYRVVSVLTVLHQDWLNGKEYKCKVSNKALPAPIEKTISKAKGQPREPQVYTLPPSREEMTKNQVSLTCLVKGFYPSDIAVEWESNGQPENNYKTTPPVLDSDGSFFLYSKLTVDKSRWQQGNVFSCSVMHEALHNHYTQKSLSLSPGK
B3: VHH12 VHH-Fc antibody (Fc fusion)
chain: B2 chain with E1Q, V4L, A12V, V24A, D40A, S62F, D72V, N105D

These binders were tested against T2, CD16 on primary human NK cells (human, UniProt P08637 17-254) (assay: FACS on human NK cells).
T2 construct: whole, on cells; also called resting NK cells
Summary of the method: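 Freshly prepared human NK cells were resuspended at 2×10⁶ cells/ml in PBS+2% (w/w) BSA and incubated 1 h on ice with antibody at varying concentrations. After five PBS washes, flow cytometry gave mean fluorescence intensity, and EC50 was fitted from the MFI curve.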

Binder	EC50	Maximum mean fluorescence intensity
B1	0.54 nM	2600
B2	0.33 nM	2660
B3	0.21 nM	2680

These binders were tested against T3, Human CD16a (158F)-his (human) (assay: SPR (Biacore), antibody captured on Protein A).
T3 construct: entry holds ECD, AVI tag, linker and His tag
Summary of the method: (§1)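 Protein A–captured antibody was probed with CD16-his ECD in HBS-EP+ at 25 °C: five 2-fold dilutions from 200 nM, 240 s at 30 μL/min, dissociation up to 600 s. Glycine pH 1.5 regenerated the chip. Apparent KD came from a double-referenced 1:1 Langmuir fit.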

Binder	Kd	koff	kon
B1	5.84 nM	0.000374 s⁻¹	64000 M⁻¹ s⁻¹
B2	42.9 nM	0.0235 s⁻¹	548000 M⁻¹ s⁻¹
B3	13.3 nM	0.0117 s⁻¹	878000 M⁻¹ s⁻¹

What follows are binders tested against T4, Human CD16a (158V)-his (human) (assay: SPR (Biacore), antibody captured on Protein A).
T4 construct: entry holds ECD, AVI tag, linker and His tag
Summary of the method: as §1

Binder	Kd	koff	kon
B1	1.96 nM	0.000213 s⁻¹	109000 M⁻¹ s⁻¹
B2	32 nM	0.0491 s⁻¹	1.53e+06 M⁻¹ s⁻¹
B3	10.8 nM	0.0201 s⁻¹	1.86e+06 M⁻¹ s⁻¹

Target: T1, Human CD16b (NA1)-his
Assay: SPR (Biacore), antibody captured on Protein A
Summary of the method: as §1

Binder	Kd	koff	kon
B1	8.63 nM	0.00113 s⁻¹	130000 M⁻¹ s⁻¹
B2	6010 nM	0.259 s⁻¹	43100 M⁻¹ s⁻¹
B3	1500 nM	0.154 s⁻¹	103000 M⁻¹ s⁻¹

Each binder was assayed against T5, human CD16a (158F), full length, on FlpinCHO cells (human, UniProt P08637 17-254) (assay: FACS, biotinylated antibody, +10 mg/mL human immunoglobulin).
Target sequence in this assay (P08637 17-254 limits assumed): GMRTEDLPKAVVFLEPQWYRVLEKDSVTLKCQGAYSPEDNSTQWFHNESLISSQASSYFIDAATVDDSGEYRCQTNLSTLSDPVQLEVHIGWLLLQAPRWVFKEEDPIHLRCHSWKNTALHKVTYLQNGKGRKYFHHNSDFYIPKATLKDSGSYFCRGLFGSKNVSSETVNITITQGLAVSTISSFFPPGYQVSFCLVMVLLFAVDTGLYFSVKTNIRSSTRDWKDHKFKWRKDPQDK

Binder	EC50	Maximum mean fluorescence intensity
B1	1.66 nM	10700
B2	0.75 nM	6720
B3	0.81 nM	5310

These binders were tested against T6, human CD16a (158V), full length, on cells (human, UniProt P08637 17-254) in the same assay as above.
T6 construct: also used as target for the bought Jurkat-NFAT reporter line stably expressing human CD16a (158V); also called FlpinCHO-human CD16a (158V); FlpinCHO-CD16a (158V)
Target sequence in this assay (P08637 17-254 F176V limits assumed): as the sequence (P08637 17-254 limits assumed) above, with F160V counted along it

Binder	EC50	Maximum mean fluorescence intensity
B1	1.77 nM	14500
B2	1.12 nM	10800
B3	0.97 nM	8140

Each binder was assayed against T5, human CD16a (158F), full length, on … (assay: FACS on FlpinCHO cells).
Summary of the method: (§2)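 Trypsinised cells in PBS + 2% BSA were incubated on ice for 1 hour with antibody at a range of concentrations. After washes, mean fluorescence intensity was read by flow cytometry. EC50 values were derived by curve fitting of MFI.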

Binder	EC50	Maximum mean fluorescence intensity
B1	0.58 nM	7070
B2	0.28 nM	5670
B3	0.16 nM	6090

The binders below were run against T6, human CD16a (158V), full length, on … (assay: FACS on FlpinCHO cells).
Summary of the method: as §2

Binder	EC50	Maximum mean fluorescence intensity
B1	0.66 nM	8110
B2	0.33 nM	6240
B3	0.21 nM	6680

Each binder was assayed against T5, human CD16a (158F), full length, on … (assay: FACS, biotinylated antibody).
Target sequence in this assay (P08637 17-254 limits assumed): as the sequence (P08637 17-254 limits assumed) above

Binder	EC50	Maximum mean fluorescence intensity
B1	0.39 nM	9740
B2	0.2 nM	7240
B3	0.12 nM	5410

Each binder was assayed against T6, human CD16a (158V), full length, on … (assay: FACS, biotinylated antibody).
Target sequence in this assay (P08637 17-254 F176V limits assumed): as the sequence (P08637 17-254 limits assumed) above, with F160V counted along it

Binder	EC50	Maximum mean fluorescence intensity
B1	0.79 nM	13300
B2	0.36 nM	10700
B3	0.16 nM	7950

Each binder was assayed against T2, CD16 on primary human NK cells (assay: FACS on human NK cells, biotinylated antibody, +10 mg/mL human immunoglobulin).

Binder	EC50	Maximum mean fluorescence intensity
B1	3.9 nM	80000
B2	2.31 nM	62300
B3	1.82 nM	48900
